Drawing on article PMC3052743, this text covers stoichiometry N for one molecule.

Broadly, the stoichiometry N is a count of units in the complex or per binding partner.

In the assay the target is T1, full-length gp130 with a C-terminal EYMPME (Glu-Glu) epitope tag, P40189.
T1 chain: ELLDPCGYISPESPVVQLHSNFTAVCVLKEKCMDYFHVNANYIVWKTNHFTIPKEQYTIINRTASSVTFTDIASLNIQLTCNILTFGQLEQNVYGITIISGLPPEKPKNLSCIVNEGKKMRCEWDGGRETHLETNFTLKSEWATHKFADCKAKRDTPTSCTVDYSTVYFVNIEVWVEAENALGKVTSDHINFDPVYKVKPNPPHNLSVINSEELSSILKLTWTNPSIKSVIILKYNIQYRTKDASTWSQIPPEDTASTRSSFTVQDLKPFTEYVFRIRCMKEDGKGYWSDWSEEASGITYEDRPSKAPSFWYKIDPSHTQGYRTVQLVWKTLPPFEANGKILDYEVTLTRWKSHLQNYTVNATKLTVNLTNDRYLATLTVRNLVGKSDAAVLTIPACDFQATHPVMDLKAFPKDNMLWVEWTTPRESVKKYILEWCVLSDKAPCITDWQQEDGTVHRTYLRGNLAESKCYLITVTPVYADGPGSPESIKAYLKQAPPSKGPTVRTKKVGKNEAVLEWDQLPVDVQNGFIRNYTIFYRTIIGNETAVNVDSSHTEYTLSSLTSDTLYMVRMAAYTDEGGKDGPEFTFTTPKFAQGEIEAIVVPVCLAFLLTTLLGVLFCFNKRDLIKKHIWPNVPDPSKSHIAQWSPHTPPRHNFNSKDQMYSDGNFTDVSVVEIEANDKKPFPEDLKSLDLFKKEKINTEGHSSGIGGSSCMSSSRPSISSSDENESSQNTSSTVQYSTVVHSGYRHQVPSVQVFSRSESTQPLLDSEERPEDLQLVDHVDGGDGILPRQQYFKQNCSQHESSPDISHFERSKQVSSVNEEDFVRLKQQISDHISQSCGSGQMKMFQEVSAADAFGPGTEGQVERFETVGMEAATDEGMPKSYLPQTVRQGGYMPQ
Put plainly: SEC. Conditions: remark: other sources report otherwise.

B1: full-length gp130 with a C-terminal EYMPME (Glu-Glu) epitope tag, P40189 23-918 (receptor)
chain: T1 chain
Molecule B1 gave a stoichiometry N of 2.
